System: MMP-responsive peptide (P3), cleavable 'L' form, conjugated to PEG (2, 5 or 10 kD) and attached directly to 13-nm Au nanoparticle SNAs

Q: MMP-9 was tested. Which “MMP9-mediated cleavage kinetics (fluorescence on release of the N-terminal fluorophore from the Au surface)” value did it give?
A: decrease in cleavage rates for 5 kD and 10 kD PEG compared to 2 kD PEG
